Test results as given in article PMC4669440.

Experiments:
Conditions in all cases: glycan lost; control: WT mice
[1] = immunohistochemistry, anti-DMP1-N 9B6.3, cortical bone
[2] = H&E histology of long bone
[3] = TRAP staining, 6-month-old mice
[4] = X-ray radiography of long bones
[5] = three-point bending of femur and tibia

B1: Dentin matrix protein 1 (DMP1): S89G (protein)
parent chain: MKTVILLVFLWGLSCALPVARYHNTESESSEERTGDLAGSPPPPTNSESSEESQASPEGQANSDHTDSSESGEELGYDRGQYRPAGGLSKSTGTGADKEDDEDDSGDDTFGDEDNDLGPEEGQWGGPSKLDSDEDSTDTTQSSEDSTSQENSAQDTPSDSKDHDSEDEADSRPEAGDSTQDSESEEQRVGGGSEGESSHGDGSEFDDEGMQSDDPESTRSDRGHARMSSAGIRSEESKGDHEPTSTQDSDDSQSVEFSSRKSFRRSHVSEEDYRGELTDSNSRETQSDSTEDTASKEESRSESQEDTAESQSQEDSPEGQDPSSESSEEAGEPSQESSSESQEGVTSESRGDNPDNTSQAGDQEDSESSEEDSLNTFSSSESQSTEEQADSESNESLSLSEESQESAQDGDSSSQEGLQSQSASTESRSQESQSEQDSRSEEDSDSQDSSRSKEESNSTGSASSSEEDIRPKNMEADSRKLIVDAYHNKPIGDQDDNDCQDGY
decreases: expression_or_secretion [1] | other: articular cartilage thickness [2] | other: osteoclast number in bone [3] | other: radiographic bone density [4] | other: bone mechanical strength [5]
